T1: GST-tagged Sac1 (residues 2-460) (Saccharomyces cerevisiae, UniProt P32368 2-460)
T1 sequence (looked up): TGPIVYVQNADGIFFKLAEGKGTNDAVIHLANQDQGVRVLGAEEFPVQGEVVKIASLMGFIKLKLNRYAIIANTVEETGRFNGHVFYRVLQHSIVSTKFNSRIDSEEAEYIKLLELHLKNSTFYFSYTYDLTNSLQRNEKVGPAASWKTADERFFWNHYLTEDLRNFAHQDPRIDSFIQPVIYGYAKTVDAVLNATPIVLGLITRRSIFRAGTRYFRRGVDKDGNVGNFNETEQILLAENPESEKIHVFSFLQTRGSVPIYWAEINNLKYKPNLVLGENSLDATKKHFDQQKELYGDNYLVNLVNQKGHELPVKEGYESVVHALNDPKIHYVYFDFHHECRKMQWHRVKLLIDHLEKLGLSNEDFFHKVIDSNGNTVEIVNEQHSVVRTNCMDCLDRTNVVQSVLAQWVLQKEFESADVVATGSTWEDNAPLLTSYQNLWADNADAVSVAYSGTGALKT


Target: T1, GST-tagged Sac1 (residues 2-460)
Assay: pull-down

| binding result | Binder |
| --- | --- |
| binds | Vps74 (residues 46-345) (domain or fragment, Saccharomyces cerevisiae, UniProt Q06385 46-345, looked up) NKKIAYDPEESKLRDNINIPTLTLMEEVLLMGLRDREGYLSFWNDSISYALRGCIIIELALRGKIRILDDSARKRFDLSERLIEVIDSSKTGEVLLDETLQLMKNDEPLSISNWIDLLSGETWNLLKINYQLKQVRERLAKGLVDKGVLRTEMKNFFLFDMATHPIADASCKEAIKRRVLSVLVSRNMELSYNEYFPETTSFKIIRTLALICGSYGANVLENVLTTLEYEKRDKAISRAEEIMAQFSQYPFDLEKETELGVSVNLNKEVKEEIENNPGHDLQLEVIAGVFEVFSRMDMLL |
| binds | Vps74 (Y260S, N263S, E266S, Y274S, and D278S) (domain or fragment, Saccharomyces cerevisiae, UniProt Q06385 46-345, looked up) NKKIAYDPEESKLRDNINIPTLTLMEEVLLMGLRDREGYLSFWNDSISYALRGCIIIELALRGKIRILDDSARKRFDLSERLIEVIDSSKTGEVLLDETLQLMKNDEPLSISNWIDLLSGETWNLLKINYQLKQVRERLAKGLVDKGVLRTEMKNFFLFDMATHPIADASCKEAIKRRVLSVLVSRNMELSYNEYFPETTSFKIIRTLALICGSSGASVLSNVLTTLESEKRSKAISRAEEIMAQFSQYPFDLEKETELGVSVNLNKEVKEEIENNPGHDLQLEVIAGVFEVFSRMDMLL |

From publication PMC4137058 (The Journal of Cell Biology, 2014)
